Reference: paper PMC3458930

Key:
caspase-7 = caspase-7 (UniProt P55210); assay: co-immunoprecipitation, Flag-tagged αB-crystallin; settings: reference: wild type; sites S45
caspase-3 = caspase-3 (UniProt P42574); assay: co-immunoprecipitation, Flag-tagged αB-crystallin; settings: reference: wild type; sites S45

With “αB-crystallin (from UniProt P02511) S45A” the “binding against the reference” value (caspase-7) was “weaker” and the “binding against the reference” value (caspase-3) was “weaker”.
